{"source": "the DeepSol protein solubility set", "data": [{"assay": "soluble on expression in E. coli; label from the status in PepcDB or PDB records", "values": [{"sequence": "MSKVIQKKNHWTSRVHECTVKRGPQGELGLTVLGGAEHGEFPYVGAVAAVEAAGLPGGGEGPRLGEGELLLEVQGVRVSGLPRYDVLGVIDSCKEAVTFKAVRQGGRLNKDLRHFLNQRFQKGSPDHELQQTIRDNLYRHAVPCTTRSPREGEVPGVDYNFLTVKEFLDLEQSGTLLEVGTYEGNYYGTPKPPSQPVSGKVITTDALHSLQSGSKQSTPKRTKSYNDMQNAGIVHAENEEEDDVPEMNSSFTADSGEQEEHTLQETALPPVNSSIIAAPITDPSQKFPQYLPLSAEDNLGPLPENWEMAYTENGEVYFIDHNTKTTSWLDPRCLNKQQKPLEECEDDEGVHTEELDSELELPAGWEKIEDPVYGIYYVDHINRKTQYENPVLEAKRKKQLEQQQQQQQQQQQQQQQQQQQQQTEEWTEDHSALVPPVIPNHPPSNPEPAREVPLQGKPFFTRNPSELKGKFIHTKLRKSSRGFGFTVVGGDEPDEFLQIKSLVLDGPAALDGKMETGDVIVSVNDTCVLGHTHAQVVKIFQSIPIGASVDLELCRGYPLPFDPDDPNTSLVTSVAILDKEPIIVNGQETYDSPASHSSKTGKVNGMKDARPSSPADVASNSSHGYPNDTVSLASSIATQPELITVHIVKGPMGFGFTIADSPGGGGQRVKQIVDSPRCRGLKEGDLIVEVNKKNVQALTHNQVVDMLVECPKGSEVTLLVQRGGLPVPKKSPKSQPLERKDSQNSSQHSVSSHRSLHTASPSHSTQVLPEFPPAEAQAPDQTDSSGQKKPDPFKIWAQSRSMYENRPMSPSPASGLSKGEREREINSTNFGECPIPDYQEQDIFLWRKETGFGFRILGGNEPGEPIYIGHIVPLGAADTDGRLRSGDELICVDGTPVIGKSHQLVVQLMQQAAKQGHVNLTVRRKVVFAVPKTENEVPSPASSHHSSNQPASLTEEKRTPQGSQNSLNTVSSGSGSTSGIGSGGGGGSGVVSTVVQPYDVEIRRGENEGFGFVIVSSVSRPEAGTTFGNACVAMPHKIGRIIEGSPADRCGKLKVGDRILAVNGCSITNKSHSDIVNLIKEAGNTVTLRIIPGDESSNATLLTNAEKIATITTTHTPSQQGTQETRNTTKPKQESQFEFKAPQATQEQDFYTVELERGAKGFGFSLRGGREYNMDLYVLRLAEDGPAERCGKMRIGDEILEINGETTKNMKHSRAIELIKNGGRRVRLFLKRGDGSVPEYAM", "soluble on expression in E. coli": "soluble"}, {"sequence": "KHGPLHPIPNRPVLTRARASLPLVLYIDRFLGGVFSKRRIPKRTQFGPVEGPLVRGSELKDCYIHLKVSLDKGDRKERDLHEDLWFELSDETLCNWMMFVRPAQNHLEQNLVAYQYGHHVYYTTIKNVEPKQELKVWYAASYAEFVNQKIHD", "soluble on expression in E. coli": "soluble"}, {"sequence": "VCLEFQDCGVGLNAAQFKQLLISAVKDLFGEVDAALPLDILTYEEKTLSAILRICSSGLVKLWSSLTLLGSYKGKKCAFRVIQVSPFLLALSGNSRELVLD", "soluble on expression in E. coli": "not soluble"}, {"sequence": "MVTVAVPKERAPGERRVALVPEVVARLVKGGARVRVERGAGEGAYHPDEAYQEAGAEVVERGELLKGAHLLFTVQPPPEDLIQALEPGAIVVGFVQPHKNLELVRALQAKKATVIAMELIPRITRAQSMDALSSQATVAGYLAAIHAARLSPRFFPMLTTAAGTIRPAKVMVMGVGVAGLMAIATAKRLGAQVFAYDVRKAALEQALSLGAKPIELPISAEGEGGYARELTEEEKRIQHEALRDHVAGMDVLITTAQVPGRRAPILLTEDMVERLKPGTVVVDLAAESGGNCVLTKPGEVVEVRGVRVYGPLNLPSELSVHASEMYAKNLYNLSSLLIEKGAFAPKWEDEIVRAALLMKEGEVLHGPTKALLGGA", "soluble on expression in E. coli": "soluble"}, {"sequence": "MRVVAIGVGGAGGRIVDALHEDDSTREASYLAGGSVLETDRGALAALDAVSEEDRHHFGHSGFGGDADSPRERIEALAEDDHVEMRRAVDSAITSDAAAIIVIAGVGGATGSVIAPKLTDALQRIYDRPVYAVSVLPATHEEVPPENPARAIAAFESAANAQLVFDNDAWVDDRNDVEDVTDGLNAELAMRLGALFSAGEAVTAESVGQRVVDASEVISTLDEGGLATIGFARQPLGTDGDDGSLLDRARELVGMDETTVDEVESIKAVETTLRQATNGRLTFDCPRDAARSGLLVVSGPPEWLHQTAVSDGQSWLADEIGSVQLRTGDNPMPGGDELTILVLLGGIRGAPRIKEIQAATDLEHHHHHH", "soluble on expression in E. coli": "soluble"}, {"sequence": "MTLNYHAHGKEIEASYRRASDDSDGDKWVIFDYEGNSNTLRVKEEGTGGLEEFADSFSSGKLQFGVISVRLSSDVFPKIVLVHWQGEGVPTLRLASTTPHAEEFRRFLKTVHIVLHARSEIDIEPDAIRKEVRKLPAANANAIVESTYSMPEKVNSVYQPTNAHSELSSEARENFWSTTNQEEKRRQADEKVAHAKQQKQYEADRDRTAAAIHTKAEDFQPEKVNSVYKPTKPHVELKTVKREEFWSKMNEEEKLRQEEEKTAREQAHKQFEADRQRMASEIHSKTENYQPDKVTSVYKPTKPHVEISSSAREEFWSKMNEEEQRRQAEEKEAQAQKQKEFETDRKRIADDLHGKAQISDKPVPSSVNPAPAPAPTPSAGLVGSRKELFSSKPSGPVLPKPQVNGSPKKWPPVGTTSPPREPVNRLTEPDEPSTYTPKPIAYEPEPMVYKPEAMKPAVSYDAYEEPPAEPAPPTFLAPTPVIAPPPPEPTPAPSHYASQYDAPPVHESFEPAVPPVSAPSHYASQYDAPPEPIDSHSSSSQLPAHIASQYDMPPVMPEEPVFAPKSSPIKVAAPPIDQYDFPPAVAEQNAMALWDYQAADDTEISFDPDDIITDIDQVDSGWWKGRAPSGRVGLFPANYVKLI", "soluble on expression in E. coli": "not soluble"}, {"sequence": "MICLEKVEDIPRLQELFAQILIVHHQARSDVLKVKGSKFTDKELEGVIGDANKPVFVYEDEAGTILCHLFLIIKEVSENDGPQKPIKTLFIDDLCVEEKARGQKLGEKLYQFALDYATEQECYNATLHVWNDNQGTLDFYEHLGVKPRYTEMKTVLKLEHHHHHH", "soluble on expression in E. coli": "not soluble"}, {"sequence": "MSLNGPLKIGYYKIGAAYRDGKGYDVDMVRELARRLGCPIANETELPRLRALKMLETGQIDVSASTLATPDRLQYAWIYQYNHAKNMVLLNPAIQARTLATLLEDPALRWGAIRGYHHGPSQDKLLEELNARHKVVIANDEDDLYKMLGNGVVTAVFAQPFSYGRWLRELPNPNQIVVLDLYPETDMVASGLALSKARFSREAAEKWHQELLKMYQDGSLYDIMRRYLNESAARQMMQKPIEEGHHHHHH", "soluble on expression in E. coli": "soluble"}, {"sequence": "MSVIDANALDTAAFVARYRALFEHSPWVVERAARRRPFDDVFGGLMQVVYDASPDDQLALIRAHPELAGKAAIDRTLTAASAAEQASAGLDRLDEDEFHRFHALNHAYRQRFGFPFVICVRLQDKAGILAELQRRLDAPRNDEIATALAEIGKIVHLRLEALPLEHHHHHH", "soluble on expression in E. coli": "soluble"}, {"sequence": "MGSDKIHHHHHHMVRGRKIMSLVTDLPAIFDQFSEARQTGFLTVMDLKERGIPLVGTYCTFMPQEIPMAAGAVVVSLCSTSDETIEEAEKDLPRNLCPLIKSSYGFGKTDKCPYFYFSDLVVGETTCDGKKKMYEYMAEFKPVHVMQLPNSVKDDASRALWKAEMLRLQKTVEERFGHEISEDALRDAIALKNRERRALANFYHLGQLNPPALSGSDILKVVYGATFRFDKEALINELDAMTARVRQQWEEGQRLDPRPRILITGCPIGGAAEKVVRAIEENGGWVVGYENCTGAKATEQCVAETGDVYDALADKYLAIGCSCVSPNDQRLKMLSQMVEEYQVDGVVDVILQACHTYAVESLAIKRHVRQQHNIPYIAIETDYSTSDVGQLSTRVAAFIEML", "soluble on expression in E. coli": "not soluble"}, {"sequence": "GFASHQYVNHVEKQRPIVTLAKHPKKVLFFYRDDCPDCQAIFHRIYWHNVISHNVVFINMNQTQNRHYIQQYQLTSVPTLIHGKQRYTGTNQQRIKQIVGD", "soluble on expression in E. coli": "not soluble"}, {"sequence": "MSLVVEHNPFAKRYRKGMKRIALVYPNRYVGGITNLGLQYIYARINESDAICERFYADVFDGLRSIESATPLSEFDVALFSLQYETDYFKAVEILKRSGFKGLKIAGGPCVMENPQPLMDYFHAFFIGEVEGYVEELIHAKNAEELSGIPGVFTGREEKVKRVYAKLDRHIEKEIIGEGAYGRCFLLEIGRGCVRRCRFCIVRQIYFPPRWRKKEMLPEIGEEKVAIIAPSPSDHPQFKEILQHYVEQGKEVSPSSVRADTLDEELADLLKKAGVKTLTIAPETASDKLQEVINKGIGDEEVMRAAELASTRFEKVKLYYMVGLPGESFEDVKAILEQALRVKKLVGKVEISVNPLVPKPHTPLQWMGFGGEEELREGISHLKKKLEYLRREARRAGIGADVSGFKEFAIQTILSRGDREVAEMLEGASYRKFEKYLKPINPDSPLPWDFIDHGYRKSTLLKEYDKIKKILEGHHHHHH", "soluble on expression in E. coli": "not soluble"}, {"sequence": "MGSDKIHHHHHHMSRGIYIVANDRVIDNAIALLNSIRYYDPEVTIYLIPFNENYHKVAEQLSTLHKVQIFPDLELIDKFTKRIGEIFDRDFLALPNKMRKLVAWFGPLDEFIYIDTDIVVFEKIADNLDKLSEVDFFCCDYHYANDKLRNIFSPFVKEQQLFSDAQLQDVFNSGFWASRKGVITEEQMDEALRECAAHREYFDFSEGVTDQPILNYLVLKLIDKRGNLVKIPGGGPGSWAGSQSFQQQDYALYDRGQRLKYLHWAGTRMKTGSPYWQLWEHYRYLHEGKFAFISKLTRRLFPFVAART", "soluble on expression in E. coli": "not soluble"}, {"sequence": "MSEELEYLKVLLYASQVEAQKLRKQKEEKDALLKTFQVKLEVEALGNLPAQRNLSEDISKREIQSLKKQVTVLKEEIGLEGSKLAIANAVQEQLKTDLADEKEKCRFTREVTKLYQMNIQLDQPSRDQVADYLQFEIRTVKEVLRQKEEELEKLMAENKYNYFENCAEKCRIQEETSAARREADLLRDEMKTLVKNMNAKSEELLGQLRDSTEKCEEMEIDCNIQLLELQKRHELLNYYASLG", "soluble on expression in E. coli": "not soluble"}, {"sequence": "MGSDKIHHHHHHMNELNCLPQDAVLWGHDILPAATASLEAHGLRHPLTFTVEPLRDFHAQHVAPYLKRGAGAFTDLPPHAPDTGVRCALDACLRAEADSILALGGGSVLDAAKAVSHLHQQQTGRYLPIAAYPTTLSGSEYSHYFGVTETVGPQPFKRSYAVRETVPKVVVIDPKLLVNTPRELLLSSAIKGIDHAVEGMRRVGVDHPHAILAAAGVERFFAVLEKWPAGTDTAEALRSGQITTDDLLQLQLAAWQCYFFPASVIYGLSHRIGHILGGTYGLPHSVTSCITLAPVLQACAATYGNKLNIFCHGETTADAAPALAGRIAGVVKRLGLPYRLRDLDFDRARLAQVAALLRQNYAAEVADLGDGADAMLHTFLERLW", "soluble on expression in E. coli": "not soluble"}, {"sequence": "MSLKTYKGYLIDLDGTMYNGTEKIEEACEFVRTLKDRGVPYLFVTNNSSRTPKQVADKLVSFDIPATEEQVFTTSMATAQHIAQQKKDASVYVIGEEGIRQAIEENGLTFGGENADFVVVGIDRSITYEKFAVGCLAIRNGARFISTNGDIAIPTERGLLPGNGSLTSVLTVSTGVQPVFIGKPESIIMEQAMRVLGTDVSETLMVGDNYATDIMAGINAGMDTLLVHTGVTKREHMTDDMEKPTHAIDSLTEWIPYIEGHHHHHH", "soluble on expression in E. coli": "soluble"}, {"sequence": "MKVLDSRDFAKVKAIAIERASYRNIGALAVYIGSMTGMRISEVLALTWPDIDTKLCVIHVTRSWDHLYGTGFKPTKTDSSVRDIEISPSVIELLNKIHQEQAASYLRTGYRDEDQMIMRDPRHNVITDSACNKALHVIQNKAGIPEDKQITFHGLRHSHVSYLISKGVDIYYISKRLGHSDVTITMKVYGHLLDSQRKQEAHKAVLFMDQILEHHHHHH", "soluble on expression in E. coli": "not soluble"}, {"sequence": "SGVDRVLVKSEAWADNRLPLTEAELALIATPPEDSDMASLQQQRQEQNYFVRLGSLSERLRNHAYEHSLGKLQNARQKAQETLQQLTSVLGLMESVKQGVDQRLGEGQEKLHQMWLSWNQKTPQDAEKDPAKPEQVEARALSMFRDITQQLQSMCVALGASIQGLPSHVREQAQQARSQVNDLQATFSGIHSFQDLSAGVLAQTRERIARAREALDNTVEYVAQNTPAMWLVGPFAPGITEKTPEGK", "soluble on expression in E. coli": "soluble"}]}]}
